Experimental findings from patent publication US20170253656A1 are described below.

The target of test [1] is CD74 on CD74 positive SU-DHL-6 cells, P04233. The experiment in a line: cell-based or functional assay.
Test [2] deals with CD74 on CD74 positive SU-DHL-6 cells (UniProt P04233). The experiment in a line: cell-based or functional assay.
Sequence of CD74 on CD74 positive SU-DHL-6 cells (P04233 whole entry): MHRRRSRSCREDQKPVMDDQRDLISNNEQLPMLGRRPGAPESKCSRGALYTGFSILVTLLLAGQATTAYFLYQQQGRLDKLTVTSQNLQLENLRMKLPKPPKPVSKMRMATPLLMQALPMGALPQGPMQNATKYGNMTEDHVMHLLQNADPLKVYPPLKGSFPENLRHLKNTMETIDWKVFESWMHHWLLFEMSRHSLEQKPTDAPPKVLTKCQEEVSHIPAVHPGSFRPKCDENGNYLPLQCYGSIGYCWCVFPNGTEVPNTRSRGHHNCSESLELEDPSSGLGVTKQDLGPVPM

Sequence of CD74 on CD74 positive SU-DHL-6 cells, P04233 (P04233 whole entry): as above

B1: 1337-A10 light chain paired with VH 1251-A06 (SEQ ID NO: 236) (Fab, V domains shown)
VH: QVQLVESGGGVVQPGRSLRLSCAASGFDFSSYGMHWVRQAPDKGLEWVAVIWDDGSDRYYADSVKGRFTISRDNSKNTLYLQMNSLRAEDTAVYYCARGGTRVLGAIHGTDVWGQGTTVTVSS
VL: DIQMTQSPSSLSASVGDRVTITCRASQGISSWVAWYQQKPEKAPKSLIYGSSRLQSGVPSRFSGSGSGTDFTLTISSLQPEDFATYYCQQYNTYPLTFGGGTKVEIK
In turn, B1 yielded a 2nd ADC Cell Killing IC50 in test [1] of 0.006 nM.

B2: 1251-A02 heavy chain paired with VL SEQ ID NO: 272 (antibody, V domains shown)
VH: QVQLVESGGGVVQPGRSLRLSCAASGFAFSDHGMHWVRQAPDKGLEWVAVIWYDGSHKIYADSVKGRFTISRDNSKNTLYLQMNSLRAEDTAVYYCARGGSLAGGAVYGTDVWGQGTTVTVSS
VL: DIQMTQSPSSLSASVGDRVTITCRASQGISSWLAWYQQKPEKAPKSLIYAASSLQSGVPSRFSGSGSGTDFTLTISSLQPEDFATYYCQQYNSYPLTFGGGTKVEIK
With B2, the 2nd ADC Cell Killing IC50 in test [1] worked out at 0.009 nM.

B3: 1447-E08 scFv-Fc (Fc fusion, part only; not given: Fc portion, part only)
chain, part: EVQLLESGGGLVQPGGSLRLSCAASGFTFNDTDMSWVRQAPGKGLEWVGMINGAGGASFYADSVRGRFTISRDNSKNTLYLQMNSLRAEDTAVYYCAKFENQWEVTFDYWGQGTLVTVSSGGGGSGGGGSGGGGSEIVLTQSPGTLSLSPGERATLSCRASQRVAGIDLSWYQQKPGQAPRLLIYGASSRATGIPDRFSGSGSGTDFTLTISRLEPEDFAVYYCQQHNTTPPTFGQGTKVEIK
Regarding B3, the 2nd ADC Cell Killing IC50 in test [2] came to 2.56 nM.

B4: 1447-G01 scFv-Fc (Fc fusion, part only; not given: Fc portion, part only)
chain, part: EVQLLESGGGLVQPGGSLRLSCAASGFTFNTSDMSWVRQAPGKGLEWVGIINGSGGATNYADSVKGRFTISRDNSKNTLYLQMNSLRAEDTAVYYCAKYENEMEVSMDYWGQGTLVTVSSGGGGSGGGGSGGGGSEIVLTQSPGTLSLSPGERATLSCRASQSVSSRELGWYQQKPGQAPRLLIYGASSRATGIPDRFSGSGSGTDFTLTISRLEPEDFAVYYCQQQCSWPPTFGQGTKVEIK
In turn, B4 returned a 2nd ADC Cell Killing IC50 in test [2] of 0.65 nM.

B5: 1193-H04b (scFv)
scFv: EVQLLESGGGLVQPGGSLRLSCAASGFTFTSSWMSWVRQAPGKGLEWVGIINGYNGITYYADSVKGRFTISRDNSKNTLYLQMNSLRAEDTAVYYCAKPSAPGARRFDYWGQGTLVTVSSGGGGSGGGGSGGGGSEIVLTQSPGTLSLSPGEATLSCRASQSVSSSYLAWYQQRPGQAPRLLIYGASSRATGIPDRFSGSGSGTDFTLTISRLEPEDFAVYYCQQHYTTPPTFGQGTKVEIK
Molecule B5 gave a 2nd ADC Cell Killing IC50 in test [1] of 14.8 nM.
